This is an account of results in doi:10.1101/2022.01.11.475809, “HP1β Chromo Shadow Domain facilitates H2A ubiquitination for BRCA1 recruitment at DNA double-strand breaks” (bioRxiv, 2022).

In the test the target is T1, FL-RING1A (1–406aa), recombinant (human, UniProt Q06587 1-406).
T1 construct: Human RING1A, full length, residues 1-406; Subcloned into the bacterial expression 1GFP vector (Addgene #29663, the vector's id); purification as in Hambarde et al., 2021 with other buffers; also called RING1A-FL; Human FL-RING1A; source: bacterial expression vector, purified (HisTrap, TEV cleavage, Superdex 75)
T1 sequence (looked up): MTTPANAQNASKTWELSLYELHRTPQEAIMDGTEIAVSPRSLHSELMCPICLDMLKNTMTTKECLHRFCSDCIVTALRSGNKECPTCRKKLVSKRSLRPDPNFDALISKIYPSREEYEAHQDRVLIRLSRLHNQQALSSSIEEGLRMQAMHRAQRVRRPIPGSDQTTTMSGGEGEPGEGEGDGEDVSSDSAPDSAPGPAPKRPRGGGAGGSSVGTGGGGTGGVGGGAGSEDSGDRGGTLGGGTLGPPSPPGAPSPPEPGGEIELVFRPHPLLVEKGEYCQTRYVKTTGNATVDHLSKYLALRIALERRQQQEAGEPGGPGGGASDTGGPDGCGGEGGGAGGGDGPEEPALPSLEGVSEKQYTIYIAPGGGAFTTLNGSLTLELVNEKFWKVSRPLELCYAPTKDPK
The test can be described thus: pull-down; FL-RING1A incubated with His6-CSD HP1β at molar ratio 1:2 in buffer H (20 mM Tris pH 8, 70 mM NaCl, 5% glycerol, 5 mM BME, 100 µM ZnCl2) on ice for 20 min; Ni-NTA resin, elution with 300 mM imidazole; SDS-PAGE and western blot. As to conditions: both partners purified. (In general: In western blotting, separated proteins are transferred to a membrane and probed.)

B1: His6-CSD HP1β (80–185aa), recombinant (domain or fragment)
chain: not shown
notes: HP1β residues 80-185 (hinge part and chromo shadow domain); 'Human' is printed before the two constructs of the sentence; Subcloned into the bacterial expression 1B vector (Addgene #29653, the vector's id); source: bacterial expression vector, purified (HisTrap, Superdex 75)
On to B1, for which the binding result is listed as “binds”.
